One experiment has as its target T1, Utp10-3C-GFP (S. cerevisiae, UniProt P42945 1-1769).
T1 construct: Utp10, S. cerevisiae, subunit of UtpA (200 kDa); GFP is joined through a 3C protease site; it holds the protein on the beads in a1-a3 and is cleaved off by 3C on elution, so it is absent in the SEC step and in the DSS cross-linking (a6); also called Utp10-GFP; Utp10-sbp-H14-3C-GFP; source: S. cerevisiae YSK32, C-terminal tag integrated in the genome, endogenous level; captured from lysate on …
The experiment can be described thus: pull-down; UtpA held via Utp10-GFP on anti-GFP nanobody sepharose (purified at 200 mM NaCl), then incubated 7 h at 4 °C in buffer with 400 mM NaCl; 3C elution; Coomassie-stained SDS-PAGE. The following applies: partners not purified.

The target in the next experiment is T2, Utp4 (S. cerevisiae, UniProt Q06679 1-776).
T2 construct: Utp4, S. cerevisiae, subunit of UtpA; No tag is named for it in either strain; strains are in Supplementary Data 1; source: endogenous, S. cerevisiae YSK32, co-purified with Utp10-GFP; overexpressed (galactose promoter) in S. cerevisiae YSK122, co-purified with Utp15-mCherry
T2 sequence (looked up): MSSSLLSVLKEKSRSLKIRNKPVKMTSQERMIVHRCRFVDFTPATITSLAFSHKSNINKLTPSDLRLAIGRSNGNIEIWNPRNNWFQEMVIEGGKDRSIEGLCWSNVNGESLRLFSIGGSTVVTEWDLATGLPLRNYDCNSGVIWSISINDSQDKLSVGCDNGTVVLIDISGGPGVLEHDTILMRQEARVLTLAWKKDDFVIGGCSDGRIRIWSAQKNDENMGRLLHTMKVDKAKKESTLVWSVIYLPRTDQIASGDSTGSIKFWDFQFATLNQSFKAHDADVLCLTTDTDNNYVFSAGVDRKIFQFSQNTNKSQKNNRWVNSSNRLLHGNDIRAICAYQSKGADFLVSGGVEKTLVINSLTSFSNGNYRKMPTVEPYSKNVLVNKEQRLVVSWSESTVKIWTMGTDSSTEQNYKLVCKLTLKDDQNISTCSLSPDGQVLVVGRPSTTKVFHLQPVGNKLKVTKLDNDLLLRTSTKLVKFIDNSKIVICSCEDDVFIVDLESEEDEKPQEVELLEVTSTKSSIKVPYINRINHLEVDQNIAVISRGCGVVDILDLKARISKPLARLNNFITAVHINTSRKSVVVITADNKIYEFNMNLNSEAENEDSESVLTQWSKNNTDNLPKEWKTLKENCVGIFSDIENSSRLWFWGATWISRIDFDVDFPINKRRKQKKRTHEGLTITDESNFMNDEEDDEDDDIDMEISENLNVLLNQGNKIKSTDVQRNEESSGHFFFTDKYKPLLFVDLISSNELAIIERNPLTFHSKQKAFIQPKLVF
The experiment in a line: cross-linking; DSS (0.2 mM, H12/D12) cross-linking of SEC-purified endogenous UtpA, 25 °C, 30 min, 50 mM HEPES-NaOH pH 7.6, 200 mM NaCl, 1 mM EDTA; cross-linked peptides found by mass spectrometry (pLink). As to conditions: both partners purified.

T1 sequence (P42945 whole entry): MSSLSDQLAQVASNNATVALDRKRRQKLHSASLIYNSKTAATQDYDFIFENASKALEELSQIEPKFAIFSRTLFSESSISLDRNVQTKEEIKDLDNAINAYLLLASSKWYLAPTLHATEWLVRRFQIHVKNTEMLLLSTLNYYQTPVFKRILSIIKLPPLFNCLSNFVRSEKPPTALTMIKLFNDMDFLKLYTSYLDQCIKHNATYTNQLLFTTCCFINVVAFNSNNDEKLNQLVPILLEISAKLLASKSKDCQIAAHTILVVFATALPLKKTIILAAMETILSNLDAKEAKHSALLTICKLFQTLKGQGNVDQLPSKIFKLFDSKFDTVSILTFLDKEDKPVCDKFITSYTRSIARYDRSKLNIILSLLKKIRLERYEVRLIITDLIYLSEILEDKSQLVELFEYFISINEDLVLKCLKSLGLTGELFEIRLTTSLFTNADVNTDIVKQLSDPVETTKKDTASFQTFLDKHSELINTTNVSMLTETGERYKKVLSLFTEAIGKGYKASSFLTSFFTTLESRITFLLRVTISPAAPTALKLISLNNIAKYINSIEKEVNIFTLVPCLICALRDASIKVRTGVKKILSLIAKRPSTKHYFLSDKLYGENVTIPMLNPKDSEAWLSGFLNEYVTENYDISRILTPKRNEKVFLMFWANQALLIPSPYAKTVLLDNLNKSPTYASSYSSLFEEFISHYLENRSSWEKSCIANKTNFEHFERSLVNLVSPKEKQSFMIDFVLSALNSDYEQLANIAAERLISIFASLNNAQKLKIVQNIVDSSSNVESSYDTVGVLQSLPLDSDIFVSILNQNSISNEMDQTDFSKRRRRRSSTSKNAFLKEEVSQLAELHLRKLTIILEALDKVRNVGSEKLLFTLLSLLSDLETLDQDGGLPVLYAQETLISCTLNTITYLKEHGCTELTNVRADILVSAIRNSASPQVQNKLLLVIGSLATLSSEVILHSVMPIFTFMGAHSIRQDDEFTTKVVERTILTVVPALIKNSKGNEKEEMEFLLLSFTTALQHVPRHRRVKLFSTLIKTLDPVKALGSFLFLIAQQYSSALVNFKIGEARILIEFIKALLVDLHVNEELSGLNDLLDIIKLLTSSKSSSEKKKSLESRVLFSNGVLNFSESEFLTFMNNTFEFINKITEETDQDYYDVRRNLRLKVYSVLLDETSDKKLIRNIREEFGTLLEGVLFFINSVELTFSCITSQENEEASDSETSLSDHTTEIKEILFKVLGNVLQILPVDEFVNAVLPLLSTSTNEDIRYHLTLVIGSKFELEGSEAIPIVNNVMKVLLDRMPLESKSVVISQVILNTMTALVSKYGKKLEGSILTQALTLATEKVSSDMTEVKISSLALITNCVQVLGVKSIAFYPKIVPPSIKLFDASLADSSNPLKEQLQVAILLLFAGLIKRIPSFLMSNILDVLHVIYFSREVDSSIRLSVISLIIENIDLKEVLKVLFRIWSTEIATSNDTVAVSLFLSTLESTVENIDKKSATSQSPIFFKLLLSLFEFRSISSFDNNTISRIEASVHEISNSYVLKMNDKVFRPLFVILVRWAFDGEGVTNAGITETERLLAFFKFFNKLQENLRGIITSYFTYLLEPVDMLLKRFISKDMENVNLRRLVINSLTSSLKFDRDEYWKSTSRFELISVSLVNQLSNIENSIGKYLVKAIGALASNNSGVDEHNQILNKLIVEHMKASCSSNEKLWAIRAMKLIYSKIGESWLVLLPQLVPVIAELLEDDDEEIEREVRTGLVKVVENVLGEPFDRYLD

B1: Utp17 (Nan1) (natural protein, S. cerevisiae, UniProt Q02931 1-896, looked up)
chain: MTQSLGIEQYKLSVVSGGKPALNNLSSVTGNKNIARLSQDQRNYIIPFNNQIKVYSVETRQCVKTLKFANNSLLSGIFLQEEENNESIVKILLGDITVPQQEDAHLITVFTNNGHVIVLNYKGKLVESPKHFKISLADEKLANVFHSEGNYRILTTFKDPSQKAHNSLQSYRLYALTFDDAKKQFEVAHQAEWHNVILSNISSNGKLLAHMCKDVSTKDHEHKSISVVSLFDDSVNLSFPLGSILSSQTQSLSYNTRYVSSMAIDNMGQQLAVGFASGVISIVSLADLQIRLLKWHIDSVLSLSFSHDGSYLLSGGWEKVMSLWQLETNSQQFLPRLNGIIIDCQVLGPQGNYYSLILQMTENNSNSDYQFLLLNASDLTSKLSINGPLPVFNSTIKHIQQPISAMNTKNSNSITSLNHSKKKQSRKLIKSRRQDFTTNVEINPINKNLYFPHISAVQIFDFYKNEQVNYQYLTSGVNNSMGKVRFELNLQDPIITDLKFTKDGQWMITYEIEYPPNDLLSSKDLTHILKFWTKNDNETNWNLKTKVINPHGISVPITKILPSPRSVNNSQGCLTADNNGGLKFWSFDSHESNWCLKKISLPNFNHFSNSVSLAWSQDGSLIFHGFDDKLQILDFDTFKKFESLENTKTVSEFTLDSEIQTVKLINDTNLIVATRTTLNAINLLRGQVINSFDLYPFVNGVYKNGHMDRLITCDERTGNIALVINQQLTDLDGVPTINYKSRIIIFDSDLSTKLGNFTHHEYISWIGWNYDTDFIFLDIESTLGVVGTTVNTQLSDEVNNEGILDGLVSNTITTSASNSDIFAEQLHKLSSRGKKSDTRDKNTNDNDEDEEDIALEFINGEKKDKLVNMNSFTSMFDNIQNVQMDTFFDRVMKVLT
notes: Utp17 (Nan1), S. cerevisiae, subunit of UtpA (101 kDa); source: endogenous, S. cerevisiae YSK32, co-purified with Utp10-GFP
B1: the binding result with Utp10-3C-GFP is recorded as “binds”.

B2: Utp9 (natural protein, S. cerevisiae, UniProt P38882 1-575, looked up)
chain: MGSSLDLVASFSHDSTRFAFQASVAQKNNVDIYPLNETKDYVVNSSLVSHIDYETNDMKVSDVIFFGWCSDLIDTQSSNIKRKLDEDEGTGESSEQRCENFFVNGFPDGRIVVYSSNGKDIVNIIKNKKEILGADTDESDIWILDSDKVVKKLQYNNSKPLKTFTLVDGKDDEIVHFQILHQNGTLLVCIITKQMVYIVDPSKRRPSTKYSFEISDAVACEFSSDGKYLLIANNEELIAYDLKEDSKLIQSWPVQVKTLKTLDDLIMALTTDGKINNYKIGEADKVCSIVVNEDLEIIDFTPINSKQQVLISWLNVNEPNFESISLKEIETQGYITINKNEKNNADEADQKKLEEKEEEAQPEVQHEKKETETKINKKVSKSDQVEIANILSSHLEANSTEILDDLMSGSWTEPEIKKFILTKINTVDHLSKIFLTISKSITQNPWNEENLLPLWLKWLLTLKSGELNSIKDKHTKKNCKHLKSALRSSEEILPVLLGIQGRLEMLRRQAKLREDLAQLSMQEGEDDEIEVIEHSNVISNPLQDQASPVEKLEPDSIVYANGESDEFVDASEYKD
notes: Utp9, S. cerevisiae, subunit of UtpA; No tag is named for it in either strain; strains are in Supplementary Data 1; source: endogenous, S. cerevisiae YSK32, co-purified with Utp10-GFP; overexpressed (galactose promoter) in S. cerevisiae YSK122, co-purified with Utp15-mCherry
With B2, the binding result with Utp4 is given as “binds”.

Source of the values: publication PMC4931317, “UtpA and UtpB chaperone nascent pre-ribosomal RNA and U3 snoRNA to initiate eukaryotic ribosome assembly” (Nature Communications, 2016).
